Assay results from patent US10442866 (BEIJING MABWORKS BIOTECH, dated 2019).

T1: murine OX40-His (Crown, Cat#: E3350-B1707) (mouse, UniProt P47741 20-211)
T1 construct: bought protein; also called mouse OX40-his; muOX40-his; not shown: His tag
T1 sequence: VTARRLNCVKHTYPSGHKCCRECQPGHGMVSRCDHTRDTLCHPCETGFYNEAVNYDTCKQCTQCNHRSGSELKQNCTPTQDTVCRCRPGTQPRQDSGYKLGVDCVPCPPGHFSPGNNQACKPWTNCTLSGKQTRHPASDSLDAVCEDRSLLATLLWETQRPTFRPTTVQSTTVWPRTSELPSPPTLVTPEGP

T2: rhesus OX40 expressed on HEK293A cells (rhesus, UniProt P43489 29-277 (human entry))
T2 construct: also called HEK293A/rhOX40; HEK293A/rhesusOX40 cells
T2 chain: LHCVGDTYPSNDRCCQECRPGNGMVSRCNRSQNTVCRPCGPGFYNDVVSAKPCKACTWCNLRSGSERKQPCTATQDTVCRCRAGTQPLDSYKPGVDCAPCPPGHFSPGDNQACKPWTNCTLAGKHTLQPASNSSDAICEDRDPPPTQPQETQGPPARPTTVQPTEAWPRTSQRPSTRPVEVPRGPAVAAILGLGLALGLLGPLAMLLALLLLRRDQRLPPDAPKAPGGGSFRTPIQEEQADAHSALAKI

T3: human OX40 expressed on HEK293A cells (human, UniProt P43489 29-277)
T3 construct: also called HEK293A/huOX40; HEK293A/human OX40 cells
T3 sequence: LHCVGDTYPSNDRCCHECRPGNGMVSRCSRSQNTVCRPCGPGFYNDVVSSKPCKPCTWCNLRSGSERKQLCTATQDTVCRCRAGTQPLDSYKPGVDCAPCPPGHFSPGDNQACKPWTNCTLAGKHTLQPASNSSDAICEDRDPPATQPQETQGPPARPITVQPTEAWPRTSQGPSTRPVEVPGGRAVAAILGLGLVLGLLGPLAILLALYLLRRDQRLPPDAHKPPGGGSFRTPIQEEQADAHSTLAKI

T4: recombinant human OX40-his (Sino Biological, Cat#:10481-H03H) (human, UniProt P43489 29-214)
T4 construct: bought protein; also called hOX40-his; not shown: His tag
T4 sequence: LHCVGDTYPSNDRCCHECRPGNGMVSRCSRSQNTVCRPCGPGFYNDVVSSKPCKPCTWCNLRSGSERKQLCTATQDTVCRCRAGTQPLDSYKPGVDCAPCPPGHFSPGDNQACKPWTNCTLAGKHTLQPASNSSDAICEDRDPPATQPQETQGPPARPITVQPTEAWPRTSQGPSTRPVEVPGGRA

T5: recombinant rhesus OX40-his (Sino Biological, Cat#:90846-C08H) (rhesus monkey, UniProt P43489 29-214 (human entry))
T5 construct: bought protein; also called monkey OX40-his; rhOX40-his; not shown: His tag
T5 chain: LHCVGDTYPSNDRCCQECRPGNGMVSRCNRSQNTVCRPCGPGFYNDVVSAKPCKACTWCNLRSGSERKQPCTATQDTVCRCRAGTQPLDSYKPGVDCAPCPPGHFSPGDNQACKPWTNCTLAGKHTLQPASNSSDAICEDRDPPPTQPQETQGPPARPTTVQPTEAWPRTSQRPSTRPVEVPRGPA

T6: mouse OX40 expressed on HEK293A cells (mouse, UniProt P47741 20-272)
T6 construct: also called HEK293A/muOX40; HEK293A/mouseOX40 cells
T6 sequence: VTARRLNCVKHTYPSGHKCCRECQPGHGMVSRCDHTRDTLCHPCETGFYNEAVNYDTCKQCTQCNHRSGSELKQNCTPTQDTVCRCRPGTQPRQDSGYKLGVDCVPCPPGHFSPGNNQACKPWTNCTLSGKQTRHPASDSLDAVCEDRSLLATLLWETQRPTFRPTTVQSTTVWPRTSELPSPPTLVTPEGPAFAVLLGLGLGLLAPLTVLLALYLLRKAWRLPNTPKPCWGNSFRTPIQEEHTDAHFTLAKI

T7: human OX40-CD40 fusion protein on HEK-Blue reporter cells (human)
T7 chain: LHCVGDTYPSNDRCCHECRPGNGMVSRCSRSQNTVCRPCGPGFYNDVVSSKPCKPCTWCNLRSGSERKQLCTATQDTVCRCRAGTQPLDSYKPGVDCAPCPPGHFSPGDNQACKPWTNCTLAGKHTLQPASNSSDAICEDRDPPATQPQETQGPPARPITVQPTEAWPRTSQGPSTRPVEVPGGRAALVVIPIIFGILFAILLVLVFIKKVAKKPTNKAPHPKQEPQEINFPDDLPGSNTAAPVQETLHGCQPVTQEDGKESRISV


Columns and labels:
[1] = target: T1, murine OX40-His (Crown, Cat#: …); test: ELISA, coated muOX40-his
[2] = target: T2, rhesus OX40 expressed on HEK293A cells; test: FACS on HEK293A cells
Method: (§1) Briefly, 10^5 HEK293A cells were seeded into each well of the 96-well plates and serially diluted anti-OX40 antibodies were added to the plates. After incubated at 4° C. for 1 hour, plates were washed 3 times with PBST. Then, an APC coupled Goat Anti-Mouse IgG (BioLegen, US, Cat#: 405308) diluted 500× was added to the plates. After incubation at 4° C. for 1 hour, the plates were washed with PBS for 3 times and then cell fluorescence was monitored using a FACS machine (BD).

[3] = target: T3, human OX40 expressed on HEK293A cells; test: FACS on HEK293A cells
Method: as §1

[4] = target: T4, recombinant human OX40-his (Sino …); test: ELISA, coated hOX40-his
Method: (§2) ELISA plates were coated with 500 ng/ml human OX40-his (used in Example 2) at 4° C. overnight. The wells were blocked with 200 µl of blocking buffer (PBS containing 1% BSA, 1% goat serum, 0.05% Tween 20) for 2 hours at room temperature, and then 100 µl of serially diluted anti-OX40 antibodies (starting from 40 µg/ml) were added to each well and incubated for 1 hour at RT. Plates were washed for 3 times with PBST (PBS+0.05% Tween 20), added with Goat-anti-mouse IgG-HRP (Simga, US, Cat#: A9309-1 ml) diluted 5000×, and incubated for 1 hour at RT. Plates were developed with freshly prepared Ultra-TMB (BD, US, Cat#: 555214) for 5 minutes at RT. Absorbance was read on a SpectraMax® i3× (Molecular Devies, US) at 450 nm.

[5] = target: T5, recombinant rhesus OX40-his (Sino …); test: ELISA, coated rhOX40-his
Method: as §2
Species-cross-reactivity of the 33 OX40 mAbs to monkey or mouse OX40 was further assessed by direct ELISA. Briefly, 500 ng/ml monkey OX40-his or mouse OX40-his (used in Example 2) was coated on 96-well ELISA plates followed by incubation with 100 µl of serially diluted anti-OX40 antibodies (starting from 40 µg/ml). Goat anti-mouse IgG (Sigma, US, Cat#:A9309-1 ml) conjugated with HRP was used then.

[6] = target: T6, mouse OX40 expressed on HEK293A cells; test: FACS on HEK293A/muOX40 cells
Method: as §1

[7] = target: T7, human OX40-CD40 fusion protein on …; test: cell-based or functional assay
[8] = target: T4, recombinant human OX40-his (Sino …); test: SPR Biacore 8K, OX40-His on chip, antibody injected
Method: SPR assays were used to determine the binding affinity of the chimetic or humanized anti-OX40 antibodies to human OX40 with the BIAcore™ 8K instrument (GE Life Sciences). Briefly, 100-200 response units (RU) of human OX40-His protein (Sino Biological, CN, Cat#:10481-H03H, Lot no.: MA08MA3003) were coupled to CM5 biosensor chips (Cat#: BR-1005-30, GE Life Sciences), followed by blocking of un-reacted groups with 1M ethanolamine. Serially diluted antibodies at concentrations ranging from 0.3 µM to 10 µM were injected into the SPR running buffer (HBS-EP buffer, pH7.4, GE Life Sciences; US; Cat#:BR-1006-69) at 30 µL/minute. The binding capacitity was calculated with the RUs of blank controls subtracted. The association rate (k_a) and dissociation rate (k_d) were calculated using the one-to-one Langmuir binding model (BIA Evaluation Software, GE Life Sciences). The equilibrium dissociation constant K_D was calculated as the k_d/k_a ratio.

[9] = target: T1, murine OX40-His (Crown, Cat#: …); test: ELISA on coated mouse OX40-His, OD450
[10] = target: T5, recombinant rhesus OX40-his (Sino …); test: ELISA on coated rhesus OX40-His, OD450
[11] = target: T4, recombinant human OX40-his (Sino …); test: ELISA on coated human OX40-His, OD450
[12] = target: T2, rhesus OX40 expressed on HEK293A cells; test: FACS on HEK293A/rhOX40 cells
[13] = target: T3, human OX40 expressed on HEK293A cells; test: FACS on HEK293A/huOX40 cells
[14] = target: T2, rhesus OX40 expressed on HEK293A cells; test: FACS on HEK293A/rhesus OX40 cells, MFI (panel without title; monkey OX40 by the legend)
Method: as §1
Example 15 Humanized Anti-OX40 Antibodies Bound to Human or Rhesus OX40 Expressed on HEK293A Cells The humanized anti-OX40 antibodies were also tested for their ability of binding to HEK293A/huOX40 cells or HEK293A/rhOX40 cells, following the FACS analysis protocol as described in Example 5.

[15] = target: T1, murine OX40-His (Crown, Cat#: …); test: ELISA

Row | Binder | binding result [1] | EC50 [2] | EC50 [3] | EC50 [4] | EC50 [5] | binding result [6] | EC50, agonistic activity in HEK-Blue assay [7] | Kd [8] | koff [8] | kon [8] | binding result [9] | EC50 (read off the curve) [10] | EC50 (read off the curve) [11] | EC50 [12] | EC50 [13] | binding result [14] | binding result [15]
1 | 68C8 (murine monoclonal antibody) (antibody, V domains shown) VH: QVQLQQSGAELVKPGASVKMSCKASGDTFTSYWITWVKQRPGQGLEWIGDIHPGSGSTNNNEKFKNKATLTVDTSSSTAYMQLSSLTSEDSAVYYCAKLRPYYFVYWGQGTTLTVSS VL: DIQMTQTTSSLSASLGDRVTISCRASQDISNYLNWYQQKPDGTVKLLIYYTSRLLSGVPSRFSGSGSGTDYSLTISNLEQEDIATYFCQQGNTLPLTFGAGTRLELK | no binding (tested: serial dilution from 40 µg/ml) | 0.095 µg/mL | 0.113 µg/mL | 0.0483 µg/mL | 0.06 µg/mL | no binding | 0.0866 µg/mL |  |  |  |  |  |  |  |  |  | 
2 | 71H8 (murine monoclonal antibody) (antibody, V domains shown) VH: QVQLQQSGAELVKPGASVKMSCKASGYTFTSYWITWVKQRPGQGLEWIGDIYPGSGSTNQNEKFKSKATLTVDTSSSTAYMQLSSLTSEDSAVYYCAKLRPYYFVYWGQGTTLTVSS VL: DIQMTQTPSSLSASLGDRVTISCRASQDISNYLNWYQQKPDGTVKLLIYYTSRLLSGVPSRFSGSGSGTDYSLTISNLEQEDIATYFCQQGNTLPLTFGAGTKLELK | no binding (tested: serial dilution from 40 µg/ml) | 0.126 µg/mL | 0.113 µg/mL | 0.052 µg/mL | 0.0501 µg/mL | no binding | 0.0494 µg/mL |  |  |  |  |  |  |  |  |  | 
3 | 6A12 (murine monoclonal antibody) (antibody, V domains shown) VH: QVQLQQSGPELVKPGASVKISCKASGYAFSSSWMNWVKQRPGKGLEWIGRIYPGDGITNYNGNFKGKATLTADKSSSTAYMQLSGLTSADSAVYFCAREFIPLGWGTGTTVTVSS VL: DIVMTQTPFSNPVTLGTSASISCRSSKSLLHSNGITYLYWYLQKPGQSPQLLIYQMSNLASGVPDRFSSSGSGTDFTLRISRVEAEDVGVYYCAQNLELPWTFGGGTKLEIK | no binding (tested: serial dilution from 40 µg/ml) | 0.253 µg/mL | 0.406 µg/mL | 0.0415 µg/mL | 0.05 µg/mL | no binding | 0.274 µg/mL |  |  |  |  |  |  |  |  |  | 
4 | chimeric antibody 71H8 (antibody, human IgG1, kappa, V domains shown, mouse variable regions with human IgG1/kappa constant regions) VH: QVQLQQSGAELVKPGASVKMSCKASGYTFTSYWITWVKQRPGQGLEWIGDIYPGSGSTNQNEKFKSKATLTVDTSSSTAYMQLSSLTSEDSAVYYCAKLRPYYFVYWGQGTTLTVSS VL: DIQMTQTPSSLSASLGDRVTISCRASQDISNYLNWYQQKPDGTVKLLIYYTSRLLSGVPSRFSGSGSGTDYSLTISNLEQEDIATYFCQQGNTLPLTFGAGTKLELKR |  |  |  |  |  |  |  | 0.158 nM | 8.28e-05 s⁻¹ | 525000 M⁻¹ s⁻¹ | no binding (tested: 10000 ng/ml (log 4)) | ~0.003 µg/mL | ~0.003 µg/mL | 0.151 µg/mL | 0.144 µg/mL |  | 
5 | 71H8-VH3VL2 (antibody, human IgG1, kappa, V domains shown, humanized; also called 71H8-H3L2) VH: QVQLVQSGAEVKKPGASVKVSCKVSGYTFTSYWITWVRQRPGQGLEWIGDIYPGSGSTNQNEKFKSRVTLTVDTSTDTAYMELSSLRSEDTAVYYCATLRPYYFVYWGQGTLVTVSS VL: DIQMTQSPSSLSASVGDRVTITCRASQDISNYLNWYQQKPGKTPKLLIYYTSRLLSGVPSRFSGSGSGTDYTLTISSLQPEDFATYYCQQGNTLPLTFGQGTRLEIKR |  |  |  |  |  |  |  | 37.2 nM | 0.00871 s⁻¹ | 234000 M⁻¹ s⁻¹ |  | ~0.003 µg/mL | ~0.003 µg/mL |  |  | binds | no binding
